The supplement of paper PMC6757056
± gives the standard deviation of the averaged measurements.

B1: library; a variant is named by its letters at N, in order (parent)
chain: GCUGUCACCGAGAAACUGUGAAGUAUAUCUUAAACCUGGGCACUUAAAAGAUAUAUGGAGUUAGUAGUGCAACCUGCUCGGUCUGAUGAGUCCNNNNNNGGACGAAACAGC

What was measured:
cyclic di-GMP [1] = variants of: B1; assay: normalized RNA/DNA level without ligand (relative to sTRSVctl = 100) (log10 (% of sTRSVctl)); HEK293T; ligand: cyclic di-GMP (c-di-GMP-II aptamer); higher = less ribozyme self-cleavage, higher mRNA level; conditions: reporter: mCherry (pCS4076), ligand present: no
Outline: (§1)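 Library plasmids encoding reporter-linked ribozyme switches (mCherry, or eGFP for some folinic acid experiments) were transfected into HEK293T at 4 µg per 6-well well. Ligand, when used, was added 1 h before transfection. Total RNA was extracted with EDTA 72 h later, then reverse-transcribed, amplified, barcoded and sequenced. RNA level was RNA reads over DNA reads, divided by a spiked-in non-cleaving control (or the top 25 sequences), ×100, log10; only sequences with ≥100 DNA reads were kept.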

cyclic di-GMP [2] = variants of: B1; assay: normalized RNA/DNA level with ligand (relative to sTRSVctl = 100) (log10 (% of sTRSVctl)); HEK293T; ligand: cyclic di-GMP (c-di-GMP-II aptamer); ligand concentration (+) RNA-Seq: 1 mM; higher = less ribozyme self-cleavage, higher mRNA level; conditions: reporter: mCherry (pCS4076), ligand present: yes
Outline: as §1

Variant: ACUAGC
- normalized RNA/DNA level without ligand (log10) (cyclic di-GMP [1]): 1.6 ± 0.048
- normalized RNA/DNA level with ligand (log10) (cyclic di-GMP [2]): 1.77 ± 0.12

Variant: ACUAGG
- normalized RNA/DNA level without ligand (log10) (cyclic di-GMP [1]): 1.52 ± 0.071
- normalized RNA/DNA level with ligand (log10) (cyclic di-GMP [2]): 1.7 ± 0.066

Variant: ACUAGA
- normalized RNA/DNA level without ligand (log10) (cyclic di-GMP [1]): 1.41 ± 0.066
- normalized RNA/DNA level with ligand (log10) (cyclic di-GMP [2]): 1.64 ± 0.12

Variant: ACUAGU
- normalized RNA/DNA level without ligand (log10) (cyclic di-GMP [1]): 1.674 ± 0.011
- normalized RNA/DNA level with ligand (log10) (cyclic di-GMP [2]): 1.8 ± 0.065

Variant: CCUGAU
- normalized RNA/DNA level without ligand (log10) (cyclic di-GMP [1]): 1.6 ± 0.021
- normalized RNA/DNA level with ligand (log10) (cyclic di-GMP [2]): 1.78 ± 0.14

Variant: CCUGAA
- normalized RNA/DNA level without ligand (log10) (cyclic di-GMP [1]): 1.32 ± 0.099
- normalized RNA/DNA level with ligand (log10) (cyclic di-GMP [2]): 1.61 ± 0.077

Variant: CCUGAC
- normalized RNA/DNA level without ligand (log10) (cyclic di-GMP [1]): 1.649 ± 0.011
- normalized RNA/DNA level with ligand (log10) (cyclic di-GMP [2]): 1.78 ± 0.11

Variant: CCUGAG
- normalized RNA/DNA level without ligand (log10) (cyclic di-GMP [1]): 1.55 ± 0.077
- normalized RNA/DNA level with ligand (log10) (cyclic di-GMP [2]): 1.76 ± 0.15

Variant: UCUAUU
- normalized RNA/DNA level without ligand (log10) (cyclic di-GMP [1]): 1.63 ± 0.034
- normalized RNA/DNA level with ligand (log10) (cyclic di-GMP [2]): 1.78 ± 0.094

Variant: UCUAUC
- normalized RNA/DNA level without ligand (log10) (cyclic di-GMP [1]): 1.698 ± 0.013
- normalized RNA/DNA level with ligand (log10) (cyclic di-GMP [2]): 1.84 ± 0.086

Variant: UCUAUA
- normalized RNA/DNA level without ligand (log10) (cyclic di-GMP [1]): 1.56 ± 0.067
- normalized RNA/DNA level with ligand (log10) (cyclic di-GMP [2]): 1.74 ± 0.12

Variant: UCUAUG
- normalized RNA/DNA level without ligand (log10) (cyclic di-GMP [1]): 1.7 ± 0.034
- normalized RNA/DNA level with ligand (log10) (cyclic di-GMP [2]): 1.85 ± 0.09

Variant: UCUCGC
- normalized RNA/DNA level without ligand (log10) (cyclic di-GMP [1]): 1.808 ± 0.017
- normalized RNA/DNA level with ligand (log10) (cyclic di-GMP [2]): 1.88 ± 0.098

Variant: UCUCGU
- normalized RNA/DNA level without ligand (log10) (cyclic di-GMP [1]): 1.69 ± 0.037
- normalized RNA/DNA level with ligand (log10) (cyclic di-GMP [2]): 1.85 ± 0.075

Variant: UCUCGA
- normalized RNA/DNA level without ligand (log10) (cyclic di-GMP [1]): 1.8 ± 0.036
- normalized RNA/DNA level with ligand (log10) (cyclic di-GMP [2]): 1.86 ± 0.15

Variant: UCUCGG
- normalized RNA/DNA level without ligand (log10) (cyclic di-GMP [1]): 1.9 ± 0.063
- normalized RNA/DNA level with ligand (log10) (cyclic di-GMP [2]): 1.96 ± 0.13

Variant: CCUAUU
- normalized RNA/DNA level without ligand (log10) (cyclic di-GMP [1]): 1.56 ± 0.048
- normalized RNA/DNA level with ligand (log10) (cyclic di-GMP [2]): 1.71 ± 0.097

Variant: CCUAUC
- normalized RNA/DNA level without ligand (log10) (cyclic di-GMP [1]): 1.63 ± 0.075
- normalized RNA/DNA level with ligand (log10) (cyclic di-GMP [2]): 1.79 ± 0.077

Variant: CCUAUG
- normalized RNA/DNA level without ligand (log10) (cyclic di-GMP [1]): 1.48 ± 0.038
- normalized RNA/DNA level with ligand (log10) (cyclic di-GMP [2]): 1.7 ± 0.083

Variant: UCUGCC
- normalized RNA/DNA level without ligand (log10) (cyclic di-GMP [1]): 1.8 ± 0.045
- normalized RNA/DNA level with ligand (log10) (cyclic di-GMP [2]): 1.91 ± 0.064

Variant: UCUGCA
- normalized RNA/DNA level without ligand (log10) (cyclic di-GMP [1]): 1.748 ± 0.0085
- normalized RNA/DNA level with ligand (log10) (cyclic di-GMP [2]): 1.85 ± 0.13

Variant: UCUGCG
- normalized RNA/DNA level without ligand (log10) (cyclic di-GMP [1]): 1.78 ± 0.035
- normalized RNA/DNA level with ligand (log10) (cyclic di-GMP [2]): 1.85 ± 0.12

Variant: UCUUGC
- normalized RNA/DNA level without ligand (log10) (cyclic di-GMP [1]): 1.752 ± 0.0056
- normalized RNA/DNA level with ligand (log10) (cyclic di-GMP [2]): 1.88 ± 0.11

Variant: UCUUGU
- normalized RNA/DNA level without ligand (log10) (cyclic di-GMP [1]): 1.732 ± 0.004
- normalized RNA/DNA level with ligand (log10) (cyclic di-GMP [2]): 1.88 ± 0.1

Variant: UCUUGG
- normalized RNA/DNA level without ligand (log10) (cyclic di-GMP [1]): 1.84 ± 0.039
- normalized RNA/DNA level with ligand (log10) (cyclic di-GMP [2]): 1.93 ± 0.15

Variant: UCUUCG
- normalized RNA/DNA level without ligand (log10) (cyclic di-GMP [1]): 1.79 ± 0.055
- normalized RNA/DNA level with ligand (log10) (cyclic di-GMP [2]): 1.89 ± 0.12

Variant: UCUUCA
- normalized RNA/DNA level without ligand (log10) (cyclic di-GMP [1]): 1.75 ± 0.057
- normalized RNA/DNA level with ligand (log10) (cyclic di-GMP [2]): 1.8 ± 0.1

Variant: UCUUCU
- normalized RNA/DNA level without ligand (log10) (cyclic di-GMP [1]): 1.76 ± 0.066
- normalized RNA/DNA level with ligand (log10) (cyclic di-GMP [2]): 1.84 ± 0.11

Variant: UCUUCC
- normalized RNA/DNA level without ligand (log10) (cyclic di-GMP [1]): 1.79 ± 0.059
- normalized RNA/DNA level with ligand (log10) (cyclic di-GMP [2]): 1.92 ± 0.13

Variant: ACUGCG
- normalized RNA/DNA level without ligand (log10) (cyclic di-GMP [1]): 1.73 ± 0.069
- normalized RNA/DNA level with ligand (log10) (cyclic di-GMP [2]): 1.83 ± 0.069

Variant: ACUGCC
- normalized RNA/DNA level without ligand (log10) (cyclic di-GMP [1]): 1.744 ± 0.016
- normalized RNA/DNA level with ligand (log10) (cyclic di-GMP [2]): 1.88 ± 0.12

Variant: ACUGCA
- normalized RNA/DNA level without ligand (log10) (cyclic di-GMP [1]): 1.64 ± 0.023
- normalized RNA/DNA level with ligand (log10) (cyclic di-GMP [2]): 1.77 ± 0.1

Variant: GCUUGU
- normalized RNA/DNA level without ligand (log10) (cyclic di-GMP [1]): 1.577 ± 0.005
- normalized RNA/DNA level with ligand (log10) (cyclic di-GMP [2]): 1.75 ± 0.15

Variant: GCUUGA
- normalized RNA/DNA level without ligand (log10) (cyclic di-GMP [1]): 1.54 ± 0.08
- normalized RNA/DNA level with ligand (log10) (cyclic di-GMP [2]): 1.76 ± 0.12

Variant: GCUUGG
- normalized RNA/DNA level without ligand (log10) (cyclic di-GMP [1]): 1.59 ± 0.023
- normalized RNA/DNA level with ligand (log10) (cyclic di-GMP [2]): 1.8 ± 0.072

Variant: GCUUGC
- normalized RNA/DNA level without ligand (log10) (cyclic di-GMP [1]): 1.77 ± 0.057
- normalized RNA/DNA level with ligand (log10) (cyclic di-GMP [2]): 1.87 ± 0.17

Variant: UCUGAG
- normalized RNA/DNA level without ligand (log10) (cyclic di-GMP [1]): 1.66 ± 0.056
- normalized RNA/DNA level with ligand (log10) (cyclic di-GMP [2]): 1.78 ± 0.098

Variant: UCUGAC
- normalized RNA/DNA level without ligand (log10) (cyclic di-GMP [1]): 1.677 ± 0.011
- normalized RNA/DNA level with ligand (log10) (cyclic di-GMP [2]): 1.84 ± 0.12

Variant: UCGUUG
- normalized RNA/DNA level without ligand (log10) (cyclic di-GMP [1]): 1.61 ± 0.14
- normalized RNA/DNA level with ligand (log10) (cyclic di-GMP [2]): 1.83 ± 0.096

Variant: UCGUUC
- normalized RNA/DNA level without ligand (log10) (cyclic di-GMP [1]): 1.739 ± 0.0071
- normalized RNA/DNA level with ligand (log10) (cyclic di-GMP [2]): 1.88 ± 0.11

Variant: UCGUUA
- normalized RNA/DNA level without ligand (log10) (cyclic di-GMP [1]): 1.44 ± 0.076
- normalized RNA/DNA level with ligand (log10) (cyclic di-GMP [2]): 1.63 ± 0.051

Variant: UCGUUU
- normalized RNA/DNA level without ligand (log10) (cyclic di-GMP [1]): 1.68 ± 0.042
- normalized RNA/DNA level with ligand (log10) (cyclic di-GMP [2]): 1.85 ± 0.11

Variant: UCUAGA
- normalized RNA/DNA level without ligand (log10) (cyclic di-GMP [1]): 1.74 ± 0.021
- normalized RNA/DNA level with ligand (log10) (cyclic di-GMP [2]): 1.88 ± 0.15

Variant: UCUAGG
- normalized RNA/DNA level without ligand (log10) (cyclic di-GMP [1]): 1.81 ± 0.049
- normalized RNA/DNA level with ligand (log10) (cyclic di-GMP [2]): 1.88 ± 0.12

Variant: UCUAGC
- normalized RNA/DNA level without ligand (log10) (cyclic di-GMP [1]): 1.69 ± 0.023
- normalized RNA/DNA level with ligand (log10) (cyclic di-GMP [2]): 1.88 ± 0.13

Variant: UCUAGU
- normalized RNA/DNA level without ligand (log10) (cyclic di-GMP [1]): 1.66 ± 0.054
- normalized RNA/DNA level with ligand (log10) (cyclic di-GMP [2]): 1.83 ± 0.057

Variant: ACUUCA
- normalized RNA/DNA level without ligand (log10) (cyclic di-GMP [1]): 1.648 ± 0.014
- normalized RNA/DNA level with ligand (log10) (cyclic di-GMP [2]): 1.83 ± 0.082

Variant: ACUUCG
- normalized RNA/DNA level without ligand (log10) (cyclic di-GMP [1]): 1.66 ± 0.067
- normalized RNA/DNA level with ligand (log10) (cyclic di-GMP [2]): 1.79 ± 0.069

Variant: ACUUCC
- normalized RNA/DNA level without ligand (log10) (cyclic di-GMP [1]): 1.776 ± 0.013
- normalized RNA/DNA level with ligand (log10) (cyclic di-GMP [2]): 1.89 ± 0.08

Variant: ACUUCU
- normalized RNA/DNA level without ligand (log10) (cyclic di-GMP [1]): 1.707 ± 0.0019
- normalized RNA/DNA level with ligand (log10) (cyclic di-GMP [2]): 1.84 ± 0.057

Variant: CGAAAU
- normalized RNA/DNA level without ligand (log10) (cyclic di-GMP [1]): 1.42 ± 0.055
- normalized RNA/DNA level with ligand (log10) (cyclic di-GMP [2]): 1.63 ± 0.12

Variant: CGAAAG
- normalized RNA/DNA level without ligand (log10) (cyclic di-GMP [1]): 1.78 ± 0.056
- normalized RNA/DNA level with ligand (log10) (cyclic di-GMP [2]): 1.88 ± 0.046

Variant: GCUGAU
- normalized RNA/DNA level without ligand (log10) (cyclic di-GMP [1]): 1.55 ± 0.061
- normalized RNA/DNA level with ligand (log10) (cyclic di-GMP [2]): 1.72 ± 0.087

Variant: GCUGAG
- normalized RNA/DNA level without ligand (log10) (cyclic di-GMP [1]): 1.5 ± 0.079
- normalized RNA/DNA level with ligand (log10) (cyclic di-GMP [2]): 1.67 ± 0.069

Variant: GCUGAC
- normalized RNA/DNA level without ligand (log10) (cyclic di-GMP [1]): 1.47 ± 0.069
- normalized RNA/DNA level with ligand (log10) (cyclic di-GMP [2]): 1.67 ± 0.1

Variant: GCUGGC
- normalized RNA/DNA level without ligand (log10) (cyclic di-GMP [1]): 1.57 ± 0.052
- normalized RNA/DNA level with ligand (log10) (cyclic di-GMP [2]): 1.71 ± 0.14

Variant: GCUGGG
- normalized RNA/DNA level without ligand (log10) (cyclic di-GMP [1]): 1.56 ± 0.029
- normalized RNA/DNA level with ligand (log10) (cyclic di-GMP [2]): 1.71 ± 0.15
